Laboratory results reported in patent publication US20130330343A1 (AbbVie / Abbott, published 2013).
Positions count from the first letter of the chain named.

T1: hRGMa-His (human, UniProt Q96B86 48-422, limits assumed)
T1 construct: not shown: His tag
T1 sequence (looked up): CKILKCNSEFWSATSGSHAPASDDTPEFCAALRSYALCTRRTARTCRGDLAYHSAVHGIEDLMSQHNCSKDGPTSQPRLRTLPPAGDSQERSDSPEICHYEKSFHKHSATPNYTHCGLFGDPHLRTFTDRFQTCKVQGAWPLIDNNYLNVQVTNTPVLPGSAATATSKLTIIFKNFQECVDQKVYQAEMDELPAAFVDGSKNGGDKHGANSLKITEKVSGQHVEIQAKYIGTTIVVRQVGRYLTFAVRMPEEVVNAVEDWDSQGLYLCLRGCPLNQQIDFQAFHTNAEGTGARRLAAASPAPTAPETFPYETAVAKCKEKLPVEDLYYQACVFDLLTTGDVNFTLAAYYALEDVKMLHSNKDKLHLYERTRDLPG

T2: R&D hRGMc-His (human, UniProt Q6ZVN8 36-400)
T2 construct: Bought (R&D); not shown: His tag
T2 sequence: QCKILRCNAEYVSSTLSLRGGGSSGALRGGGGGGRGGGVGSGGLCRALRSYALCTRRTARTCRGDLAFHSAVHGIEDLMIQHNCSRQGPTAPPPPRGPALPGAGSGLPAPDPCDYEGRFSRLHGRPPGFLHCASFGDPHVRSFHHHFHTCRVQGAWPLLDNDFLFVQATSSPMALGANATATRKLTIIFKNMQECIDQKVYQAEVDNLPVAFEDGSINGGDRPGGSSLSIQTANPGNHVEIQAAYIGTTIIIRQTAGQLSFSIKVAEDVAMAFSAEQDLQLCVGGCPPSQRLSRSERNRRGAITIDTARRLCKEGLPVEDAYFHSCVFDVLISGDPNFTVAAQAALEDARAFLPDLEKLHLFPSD

T3: Rat RGMa-His (rat) (UniProt D4A188)
T3 sequence: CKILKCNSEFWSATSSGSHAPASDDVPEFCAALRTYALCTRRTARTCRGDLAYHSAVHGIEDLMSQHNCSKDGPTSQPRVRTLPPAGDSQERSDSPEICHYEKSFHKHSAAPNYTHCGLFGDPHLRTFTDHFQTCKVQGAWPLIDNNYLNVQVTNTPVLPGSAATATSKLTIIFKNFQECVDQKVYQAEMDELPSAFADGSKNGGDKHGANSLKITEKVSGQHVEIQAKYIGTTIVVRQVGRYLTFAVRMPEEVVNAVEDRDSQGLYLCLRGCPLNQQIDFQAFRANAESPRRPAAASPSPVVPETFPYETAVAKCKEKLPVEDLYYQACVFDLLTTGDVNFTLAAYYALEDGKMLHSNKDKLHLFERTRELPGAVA

T4: hRGMc expressed in 293HEK cells (human, UniProt Q6ZVN8 36-400)
T4 sequence: T2 sequence

T5: Rat RGMa (rat) (UniProt D4A188)
T5 sequence: T3 sequence

T6: human RGMa (human, UniProt Q96B86 48-422, limits assumed)
T6 construct: also called hRGMa; h RGMa
T6 sequence (looked up): T1 sequence (looked up)

T7: human RGMc (human, UniProt Q6ZVN8 36-400, limits assumed)
T7 construct: also called hRGMc
T7 sequence: T2 sequence

B1: RGMA-h5F9Vh7a/pJP291 hIgG1/K mut (antibody, V domains shown)
VH: EVQLVESGGGLVQPGGSLRLSCAASGFTFSNYGMNWIRQAPGKGLEWIGMIYYDSSEKHYADSVKGRFTISRDNSKNTLYLQMNSLRAEDTAVYYCAKGTTPDYWGQGTMVTVSS
VL: DVVLTQSPLSLPVTLGQPASISCRSSQSLESSDGDTFLEWFQQRPGQSPRLLIYDVSTRFSGVPDRFSGSGSGTDFTLKISRVEAEDVGVYYCFQVTHDPVTFGQGTKLEIK
notes: Tested as IgG; also called h5F9.AM4; H5F9AM.4
B2: RGMA-h5F9pJP297/pJP299 hIgG1/K mut (antibody, V domains shown)
VH: B1 VH with L11V, G16R, I37V, I48V, G49A, K98R
VL: B1 VL with E30A, S31D, E39H, D55A, T58H, V96A
notes: Tested as IgG; also called h5F9.AM9; H5F9AM.9
B3: RGMA-h5F9pJP302/pJP303 hIgG1/K mut (antibody, V domains shown)
VH: B1 VH with I37V, I48V, G49S
VL: B1 VL with S31D, D35G, T58S, V96A, V101L, T102S
notes: Tested as IgG; also called h5F9.AM11; H5F9AM.11
B4: RGMA-h5F9pJP297/pJP298 hIgG1/K mut (antibody, V domains shown)
VH: B1 VH
VL: B1 VL with S31E, D35Y, E39H, D55E, V96A, V101L
notes: Tested as IgG; also called h5F9.AM8; H5F9AM.8
B5: humanized antibody 5F9.23 (antibody, V domains shown)
VH: B1 VH
VL: DVVLTQSPLSLPVTLGQPASISCRSSQSLEYSDGYTFLEWFQQRPGQSPRLLIYEVSNRFSGVPDRFSGSGSGTDFTLKISRVEAEDVGVYYCFQATHDPLTFGQGTKLEIKR
notes: also called h5F9.23; H5F9.23

target: T1, hRGMa-His; experiment: Affinity KD (nM); (BIAcore per Example 4)
Method: (§1) The potency data correlates with the affinity data (see Table 5). The affinity of h5F9.23 affinity matured Abs towards human RGMa, rat RGMa, and human RGMc were determined by BIAcore analysis (Table 5). Testing Abs were captured to the surface of a CM5 chip via anti-hIgG Fc Ab, and serially diluted antigens were injected. Association and dissociation rates were monitored for 5 and 10 min respectively. Sensorgrams were fitted by global analysis using the BIAevaluation 4.0.1 software for a 1:1 Langmuir binding model. The equilibrium dissociation constants (KD) were calculated from kinetic rate constants (off rate kd and on rate ka): KD=kd/ka.

Kd | Binder
0.015 nM | B1
0.47 nM | B2
0.11 nM | B3
0.031 nM | B4

target: T2, R&D hRGMc-His; experiment: Affinity KD (nM); (BIAcore per Example 4)
Method: as §1

Kd | Binder
0.12 nM | B1
0.69 nM | B2
0.25 nM | B3
0.08 nM | B4

target: T3, Rat RGMa-His (rat); experiment: Affinity KD (nM); (BIAcore per Example 4)

Kd | Binder
< 0.00094 nM | B1
0.31 nM | B2
0.074 nM | B3
< 0.0015 nM | B4

target: T4, hRGMc expressed in 293HEK cells; experiment: cell-based or functional assay

IC50, RGMc-mediated BMP reporter (BRE-luc) assay in 293HEK cells | Binder
17 nM | B5

target: T5, Rat RGMa (rat); experiment: BIAcore; Ab captured via anti-hIgG Fc on CM5 chip, antigen injected; 1:1 Langmuir fit

Kd | koff | kon | Binder
< 0.00094 nM | < 1e-06 s⁻¹ | 1.1e+06 M⁻¹ s⁻¹ | B1
2.1 nM | 0.0017 s⁻¹ | 830000 M⁻¹ s⁻¹ | B5
0.31 nM | 0.00021 s⁻¹ | 680000 M⁻¹ s⁻¹ | B2
0.074 nM | 5.2e-05 s⁻¹ | 700000 M⁻¹ s⁻¹ | B3
< 0.0015 nM | < 1e-06 s⁻¹ | 660000 M⁻¹ s⁻¹ | B4

target: T4, hRGMc expressed in 293HEK cells; experiment: cell-based or functional assay; remark: another data set of the same source

IC50 (inhibition of RGMc-mediated BRE-luciferase activity, RLU, in 293HEK cells transfected with hRGMc) | Binder
0.31 nM | B1
17.1 nM | B5
1.36 nM | B2
0.51 nM | B3
0.38 nM | B4

target: T6, human RGMa; experiment: BIAcore; Ab captured via anti-hIgG Fc on CM5 chip, antigen injected; 1:1 Langmuir fit
Method: as §1

Kd | koff | kon | Binder
0.015 nM | 2.2e-05 s⁻¹ | 1.4e+06 M⁻¹ s⁻¹ | B1
3.7 nM | 0.0022 s⁻¹ | 600000 M⁻¹ s⁻¹ | B5
0.47 nM | 0.0004 s⁻¹ | 860000 M⁻¹ s⁻¹ | B2
0.11 nM | 9.9e-05 s⁻¹ | 930000 M⁻¹ s⁻¹ | B3
0.031 nM | 2.7e-05 s⁻¹ | 870000 M⁻¹ s⁻¹ | B4

target: T7, human RGMc; experiment: as above
Method: as §1

Kd | koff | kon | Binder
0.13 nM | 0.00104 s⁻¹ | 7.85e+06 M⁻¹ s⁻¹ | B1
29 nM | – | 830000 M⁻¹ s⁻¹ | B5
0.71 nM | 0.0107 s⁻¹ | 1.55e+07 M⁻¹ s⁻¹ | B2
0.285 nM | 0.0014 s⁻¹ | 5.05e+06 M⁻¹ s⁻¹ | B3
0.105 nM | 0.00039 s⁻¹ | 3.95e+06 M⁻¹ s⁻¹ | B4
